The source of these data is publication PMC7165476 (Proceedings of the National Academy of Sciences of the …, 2020).

In series [1] the target is TNPO1 lacking the disordered acidic loop (TNPO1^Δloop) (human) (UniProt Q92973). Put plainly: ITC.
Series [2] addresses Transportin-1 (TNPO1), recombinant full length (human) (UniProt Q92973). Nature of the series: ITC.
Series [3] concerns the target Transportin-3 (TNPO3), recombinant full length (human) (UniProt Q9Y5L0). Put plainly: ITC.
For series [4] the target is unchanged. Nature of the series: ITC. The source holds these as a separate data set.
Series [5] has as its target TNPO1 acidic loop (TNPO1^loop) (human). Nature of the series: NMR titration.
The target of another series is T1, CIRBP RGG (CIRBPRGG) (Homo sapiens, UniProt Q14011 68-137).
T1 sequence: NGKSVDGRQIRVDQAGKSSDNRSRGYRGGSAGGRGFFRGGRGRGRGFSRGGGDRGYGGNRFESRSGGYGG
Nature of the series: NMR.

For series [6], the target named is T2, Transportin-3 (TNPO3), recombinant full length (human, UniProt Q9Y5L0 1-923).
T2 sequence (looked up): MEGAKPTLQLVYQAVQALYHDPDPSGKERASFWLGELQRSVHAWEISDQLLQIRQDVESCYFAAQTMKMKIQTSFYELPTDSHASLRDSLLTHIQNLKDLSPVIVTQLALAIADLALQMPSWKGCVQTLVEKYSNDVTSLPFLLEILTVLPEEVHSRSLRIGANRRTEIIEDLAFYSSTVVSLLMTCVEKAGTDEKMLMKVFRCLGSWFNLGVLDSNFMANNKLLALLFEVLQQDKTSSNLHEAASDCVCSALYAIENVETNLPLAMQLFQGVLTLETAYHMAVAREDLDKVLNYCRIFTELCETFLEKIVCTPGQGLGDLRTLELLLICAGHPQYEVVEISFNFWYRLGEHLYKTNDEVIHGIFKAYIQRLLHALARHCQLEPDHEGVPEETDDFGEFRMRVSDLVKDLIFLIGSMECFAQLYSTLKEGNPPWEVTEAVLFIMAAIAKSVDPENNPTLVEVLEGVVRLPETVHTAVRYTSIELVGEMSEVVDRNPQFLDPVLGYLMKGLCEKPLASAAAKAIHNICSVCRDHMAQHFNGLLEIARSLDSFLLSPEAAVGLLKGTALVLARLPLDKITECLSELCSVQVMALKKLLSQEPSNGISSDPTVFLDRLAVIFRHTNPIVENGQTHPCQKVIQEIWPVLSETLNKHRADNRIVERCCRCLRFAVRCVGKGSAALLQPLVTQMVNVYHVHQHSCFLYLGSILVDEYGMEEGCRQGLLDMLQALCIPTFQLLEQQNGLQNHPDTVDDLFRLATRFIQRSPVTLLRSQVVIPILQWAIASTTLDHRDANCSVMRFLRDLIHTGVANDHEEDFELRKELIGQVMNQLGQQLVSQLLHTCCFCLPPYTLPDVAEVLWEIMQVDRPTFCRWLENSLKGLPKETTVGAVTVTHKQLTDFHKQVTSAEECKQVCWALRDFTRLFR
Put plainly: ITC.

Where two headings read alike, the source gives them in different places.

TNPO1 lacking the disordered acidic loop (TNPO1^Δloop) (human), sequence (Q92973 whole entry, stated change not applied): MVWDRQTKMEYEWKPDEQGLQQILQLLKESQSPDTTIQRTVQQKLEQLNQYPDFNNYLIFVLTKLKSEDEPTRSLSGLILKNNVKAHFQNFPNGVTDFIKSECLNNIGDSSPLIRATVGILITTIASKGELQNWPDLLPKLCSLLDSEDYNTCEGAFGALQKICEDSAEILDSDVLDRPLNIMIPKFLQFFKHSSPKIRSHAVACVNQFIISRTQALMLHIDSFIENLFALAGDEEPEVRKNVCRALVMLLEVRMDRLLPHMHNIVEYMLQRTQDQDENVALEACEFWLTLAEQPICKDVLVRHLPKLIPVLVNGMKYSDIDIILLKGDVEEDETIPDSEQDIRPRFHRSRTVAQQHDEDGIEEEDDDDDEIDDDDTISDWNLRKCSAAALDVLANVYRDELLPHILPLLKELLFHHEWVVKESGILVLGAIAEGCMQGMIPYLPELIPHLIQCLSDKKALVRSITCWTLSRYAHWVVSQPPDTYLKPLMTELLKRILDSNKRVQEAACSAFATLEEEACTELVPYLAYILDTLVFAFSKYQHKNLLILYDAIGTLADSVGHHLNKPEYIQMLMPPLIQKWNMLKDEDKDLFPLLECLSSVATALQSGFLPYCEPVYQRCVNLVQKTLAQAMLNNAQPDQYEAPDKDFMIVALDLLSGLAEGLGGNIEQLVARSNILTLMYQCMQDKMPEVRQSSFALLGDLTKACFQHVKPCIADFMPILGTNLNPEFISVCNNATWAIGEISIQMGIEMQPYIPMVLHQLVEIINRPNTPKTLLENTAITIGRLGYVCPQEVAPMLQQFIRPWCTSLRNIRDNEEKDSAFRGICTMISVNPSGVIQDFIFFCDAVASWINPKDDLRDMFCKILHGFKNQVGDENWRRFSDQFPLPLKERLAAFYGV
Transportin-1 (TNPO1), recombinant full length (human), sequence (Q92973 whole entry): as the sequence (Q92973 whole entry, stated change not applied) above
TNPO1 acidic loop (TNPO1^loop) (human), sequence (Q92973 whole entry): as the sequence (Q92973 whole entry, stated change not applied) above

Consider “CIRBP RG/RGG-rich region (CIRBP^RGG) (domain or fragment)”, for which the Kd in series [1] is 364 nM; in series [2], 75 nM; in series [3], 584 nM; in series [4], 589 nM; in series [5] it was 57000 nM. Also, the dH in series [1] was -22.3 kcal⋅mol^−1; in series [2], -11.3 kcal⋅mol^−1; in series [3], -27 kcal⋅mol^−1.
Turning to “PY-NLS of FUS (FUS^PY-NLS) (domain or fragment)”, in series [1], the Kd amounted to 62 nM and the dH is -20.6 kcal⋅mol^−1. In addition, in series [2], the Kd amounted to 48 nM and the dH is -21.9 kcal⋅mol^−1.
In the case of “CIRBP C-terminal RSY-rich region (CIRBP^RSY) (domain or fragment)”, the Kd was found to be 8080 nM in series [1], 7800 nM in series [2] and 114 nM in series [3]. Further, the dH in series [1] is -19 kcal⋅mol^−1; in series [2], -10 kcal⋅mol^−1; in series [3], -34.9 kcal⋅mol^−1.
Turning to “PRMT1-methylated CIRBP RG/RGG region (meCIRBP^RGG) (domain or fragment)”, in series [3], the Kd came to 3300 nM and the dH was -23 kcal⋅mol^−1.
Consider “Cold-inducible RNA-binding protein (CIRBP), full length, untagged (from UniProt Q14011 1-172) (natural protein)”, for which, in series [2], the dissociation constant (Kd) was found to be 741 nM and the dH was -21 kcal⋅mol^−1.
As to UGUGUGUGUGUGUGUGUGUGUGUG (ssRNA) [(UG)12 RNA], the binding result with CIRBP RGG (CIRBPRGG) is listed as “binds”.

B1: Cold-inducible RNA-binding protein (CIRBP), full length, untagged (natural protein, human, UniProt Q14011 1-172, looked up)
chain: MASDEGKLFVGGLSFDTNEQSLEQVFSKYGQISEVVVVKDRETQRSRGFGFVTFENIDDAKDAMMAMNGKSVDGRQIRVDQAGKSSDNRSRGYRGGSAGGRGFFRGGRGRGRGFSRGGGDRGYGGNRFESRSGGYGGSRDYYSSRSQSGGYSDRSSGGSYRDSYDSYATHNE
Consider B1, for which, in series [6], the Kd was determined as 289 nM and the dH is -58.6 kcal⋅mol^−1.
